Data on 19 molecules can be found in paper PMC2888420 (The Journal of Biological Chemistry, 2010).

The labels stand for the following.
B7: fluorescently labeled phosphopeptide VNKpSYFND-fluorescein (peptide)
peptide: VNK[pS]YFND-fluorescein

Test [1] deals with B7. In words: fluorescence polarisation.
Test [2] deals with BRCA1 BRCT domains, wild type (residues 1646-1863) (UniProt P38398 1646-1863). In words: fluorescence polarisation.

Square brackets hold non-standard residues; d marks the D form. Ends that are not written are not given here. pS = N[C@@H](COP(=O)(O)O)C(=O)O

B1: BRCA1 BRCT A1843P (domain or fragment, UniProt P38398 1646-1863, looked up)
chain: VNKRMSMVVSGLTPEEFMLVYKFARKHHITLTNLITEETTHVVMKTDAEFVCERTLKYFLGIAGGKWVVSYFWVTQSIKERKMLNEHDFEVRGDVVNGRNHQGPKRARESQDRKIFRGLEICCYGPFTNMPTDQLEWMVQLCGASVVKELSSFTLGTGVHPIVVVQPDAWTEDNGFHAIGQMCEAPVVTREWVLDSVPLYQCQELDTYLIPQIPHSHY
As for B1, in test [1], the “fold reduction in affinity against wild type” value (shortened to “fold reduction in affinity”) was at most 1.5 fold.

B2: BRCA1 BRCT V1808A (domain or fragment, UniProt P38398 1646-1863, looked up)
chain: VNKRMSMVVSGLTPEEFMLVYKFARKHHITLTNLITEETTHVVMKTDAEFVCERTLKYFLGIAGGKWVVSYFWVTQSIKERKMLNEHDFEVRGDVVNGRNHQGPKRARESQDRKIFRGLEICCYGPFTNMPTDQLEWMVQLCGASVVKELSSFTLGTGVHPIAVVQPDAWTEDNGFHAIGQMCEAPVVTREWVLDSVALYQCQELDTYLIPQIPHSHY
For the molecule B2, the “fold reduction in affinity” value in test [1] is at most 1.5 fold.

B3: BRCA1 BRCT R1699Q (domain or fragment, UniProt P38398 1646-1863, looked up)
chain: VNKRMSMVVSGLTPEEFMLVYKFARKHHITLTNLITEETTHVVMKTDAEFVCEQTLKYFLGIAGGKWVVSYFWVTQSIKERKMLNEHDFEVRGDVVNGRNHQGPKRARESQDRKIFRGLEICCYGPFTNMPTDQLEWMVQLCGASVVKELSSFTLGTGVHPIVVVQPDAWTEDNGFHAIGQMCEAPVVTREWVLDSVALYQCQELDTYLIPQIPHSHY
On to B3, for which the “fold reduction in affinity” value in test [1] is about 100 fold.

B4: BRCA1 BRCT G1788D (domain or fragment, UniProt P38398 1646-1863, looked up)
chain: VNKRMSMVVSGLTPEEFMLVYKFARKHHITLTNLITEETTHVVMKTDAEFVCERTLKYFLGIAGGKWVVSYFWVTQSIKERKMLNEHDFEVRGDVVNGRNHQGPKRARESQDRKIFRGLEICCYGPFTNMPTDQLEWMVQLCDASVVKELSSFTLGTGVHPIVVVQPDAWTEDNGFHAIGQMCEAPVVTREWVLDSVALYQCQELDTYLIPQIPHSHY
B4: in test [1], the “fold reduction in affinity” value was at most 1.5 fold.

B5: BRCA1 BRCT R1699W (domain or fragment, UniProt P38398 1646-1863, looked up)
chain: VNKRMSMVVSGLTPEEFMLVYKFARKHHITLTNLITEETTHVVMKTDAEFVCEWTLKYFLGIAGGKWVVSYFWVTQSIKERKMLNEHDFEVRGDVVNGRNHQGPKRARESQDRKIFRGLEICCYGPFTNMPTDQLEWMVQLCGASVVKELSSFTLGTGVHPIVVVQPDAWTEDNGFHAIGQMCEAPVVTREWVLDSVALYQCQELDTYLIPQIPHSHY
For the molecule B5, the “fold reduction in affinity” value in test [1] was about 300 fold.

B6: BRCA1 BRCT G1706A (domain or fragment, UniProt P38398 1646-1863, looked up)
chain: VNKRMSMVVSGLTPEEFMLVYKFARKHHITLTNLITEETTHVVMKTDAEFVCERTLKYFLAIAGGKWVVSYFWVTQSIKERKMLNEHDFEVRGDVVNGRNHQGPKRARESQDRKIFRGLEICCYGPFTNMPTDQLEWMVQLCGASVVKELSSFTLGTGVHPIVVVQPDAWTEDNGFHAIGQMCEAPVVTREWVLDSVALYQCQELDTYLIPQIPHSHY
In the case of B6, the “fold reduction in affinity” value in test [1] was about 1.4 fold.

As usually defined, the Kd is the free concentration of one partner at which half of the binding sites on the other are occupied at equilibrium, for simple one-to-one binding. On to B7, for which the dissociation constant (Kd) in test [2] amounted to 112 ± 6 nM.

B8: BRCA1 BRCT T1773S (domain or fragment, UniProt P38398 1646-1863, looked up)
chain: VNKRMSMVVSGLTPEEFMLVYKFARKHHITLTNLITEETTHVVMKTDAEFVCERTLKYFLGIAGGKWVVSYFWVTQSIKERKMLNEHDFEVRGDVVNGRNHQGPKRARESQDRKIFRGLEICCYGPFSNMPTDQLEWMVQLCGASVVKELSSFTLGTGVHPIVVVQPDAWTEDNGFHAIGQMCEAPVVTREWVLDSVALYQCQELDTYLIPQIPHSHY
With B8, the “fold reduction in affinity” value in test [1] is about 1.4 fold.

B9: BRCA1 BRCT V1736A (domain or fragment, UniProt P38398 1646-1863, looked up)
chain: VNKRMSMVVSGLTPEEFMLVYKFARKHHITLTNLITEETTHVVMKTDAEFVCERTLKYFLGIAGGKWVVSYFWVTQSIKERKMLNEHDFEARGDVVNGRNHQGPKRARESQDRKIFRGLEICCYGPFTNMPTDQLEWMVQLCGASVVKELSSFTLGTGVHPIVVVQPDAWTEDNGFHAIGQMCEAPVVTREWVLDSVALYQCQELDTYLIPQIPHSHY
Take B9: in test [1], the “fold reduction in affinity” value is about 5 fold.

B10: BRCA1 BRCT D1692N (domain or fragment, UniProt P38398 1646-1863, looked up)
chain: VNKRMSMVVSGLTPEEFMLVYKFARKHHITLTNLITEETTHVVMKTNAEFVCERTLKYFLGIAGGKWVVSYFWVTQSIKERKMLNEHDFEVRGDVVNGRNHQGPKRARESQDRKIFRGLEICCYGPFTNMPTDQLEWMVQLCGASVVKELSSFTLGTGVHPIVVVQPDAWTEDNGFHAIGQMCEAPVVTREWVLDSVALYQCQELDTYLIPQIPHSHY
With B10, the “fold reduction in affinity” value in test [1] is about 1.4 fold.

B11: BRCA1 BRCT D1778N (domain or fragment, UniProt P38398 1646-1863, looked up)
chain: VNKRMSMVVSGLTPEEFMLVYKFARKHHITLTNLITEETTHVVMKTDAEFVCERTLKYFLGIAGGKWVVSYFWVTQSIKERKMLNEHDFEVRGDVVNGRNHQGPKRARESQDRKIFRGLEICCYGPFTNMPTNQLEWMVQLCGASVVKELSSFTLGTGVHPIVVVQPDAWTEDNGFHAIGQMCEAPVVTREWVLDSVALYQCQELDTYLIPQIPHSHY
Regarding B11, in test [1], the “fold increase in affinity against wild type” value was about 1.5 fold.

B12: BRCA1 BRCT M1652I (domain or fragment, UniProt P38398 1646-1863, looked up)
chain: VNKRMSIVVSGLTPEEFMLVYKFARKHHITLTNLITEETTHVVMKTDAEFVCERTLKYFLGIAGGKWVVSYFWVTQSIKERKMLNEHDFEVRGDVVNGRNHQGPKRARESQDRKIFRGLEICCYGPFTNMPTDQLEWMVQLCGASVVKELSSFTLGTGVHPIVVVQPDAWTEDNGFHAIGQMCEAPVVTREWVLDSVALYQCQELDTYLIPQIPHSHY
Regarding B12, the “fold reduction in affinity” value in test [1] was about 1.4 fold.

B13: BRCA1 BRCT V1665M (domain or fragment, UniProt P38398 1646-1863, looked up)
chain: VNKRMSMVVSGLTPEEFMLMYKFARKHHITLTNLITEETTHVVMKTDAEFVCERTLKYFLGIAGGKWVVSYFWVTQSIKERKMLNEHDFEVRGDVVNGRNHQGPKRARESQDRKIFRGLEICCYGPFTNMPTDQLEWMVQLCGASVVKELSSFTLGTGVHPIVVVQPDAWTEDNGFHAIGQMCEAPVVTREWVLDSVALYQCQELDTYLIPQIPHSHY
Consider B13, for which, in test [1], the “fold reduction in affinity” value is about 1.4 fold.

B14: BRCA1 BRCT G1788V (domain or fragment, UniProt P38398 1646-1863, looked up)
chain: VNKRMSMVVSGLTPEEFMLVYKFARKHHITLTNLITEETTHVVMKTDAEFVCERTLKYFLGIAGGKWVVSYFWVTQSIKERKMLNEHDFEVRGDVVNGRNHQGPKRARESQDRKIFRGLEICCYGPFTNMPTDQLEWMVQLCVASVVKELSSFTLGTGVHPIVVVQPDAWTEDNGFHAIGQMCEAPVVTREWVLDSVALYQCQELDTYLIPQIPHSHY
Take B14: the “fold reduction in affinity” value in test [1] is about 1.4 fold.

B15: BRCA1 BRCT M1775R (domain or fragment, UniProt P38398 1646-1863, looked up)
chain: VNKRMSMVVSGLTPEEFMLVYKFARKHHITLTNLITEETTHVVMKTDAEFVCERTLKYFLGIAGGKWVVSYFWVTQSIKERKMLNEHDFEVRGDVVNGRNHQGPKRARESQDRKIFRGLEICCYGPFTNRPTDQLEWMVQLCGASVVKELSSFTLGTGVHPIVVVQPDAWTEDNGFHAIGQMCEAPVVTREWVLDSVALYQCQELDTYLIPQIPHSHY
For the molecule B15, in test [1], the “fold reduction in affinity” value is about 1.4 fold.

B16: BRCA1 BRCT R1699L (domain or fragment, UniProt P38398 1646-1863, looked up)
chain: VNKRMSMVVSGLTPEEFMLVYKFARKHHITLTNLITEETTHVVMKTDAEFVCELTLKYFLGIAGGKWVVSYFWVTQSIKERKMLNEHDFEVRGDVVNGRNHQGPKRARESQDRKIFRGLEICCYGPFTNMPTDQLEWMVQLCGASVVKELSSFTLGTGVHPIVVVQPDAWTEDNGFHAIGQMCEAPVVTREWVLDSVALYQCQELDTYLIPQIPHSHY
In the case of B16, in test [1], the “fold reduction in affinity” value is about 100 fold.

B17: BRCA1 BRCT R1751Q (domain or fragment, UniProt P38398 1646-1863, looked up)
chain: VNKRMSMVVSGLTPEEFMLVYKFARKHHITLTNLITEETTHVVMKTDAEFVCERTLKYFLGIAGGKWVVSYFWVTQSIKERKMLNEHDFEVRGDVVNGRNHQGPKQARESQDRKIFRGLEICCYGPFTNMPTDQLEWMVQLCGASVVKELSSFTLGTGVHPIVVVQPDAWTEDNGFHAIGQMCEAPVVTREWVLDSVALYQCQELDTYLIPQIPHSHY
Regarding B17, the “fold reduction in affinity” value in test [1] is about 1.4 fold.

B18: BRCA1 BRCT M1783T (domain or fragment, UniProt P38398 1646-1863, looked up)
chain: VNKRMSMVVSGLTPEEFMLVYKFARKHHITLTNLITEETTHVVMKTDAEFVCERTLKYFLGIAGGKWVVSYFWVTQSIKERKMLNEHDFEVRGDVVNGRNHQGPKRARESQDRKIFRGLEICCYGPFTNMPTDQLEWTVQLCGASVVKELSSFTLGTGVHPIVVVQPDAWTEDNGFHAIGQMCEAPVVTREWVLDSVALYQCQELDTYLIPQIPHSHY
As for B18, the “fold reduction in affinity” value in test [1] was at most 1.5 fold.

B19: BRCA1 BRCT L1664P (domain or fragment, UniProt P38398 1646-1863, looked up)
chain: VNKRMSMVVSGLTPEEFMPVYKFARKHHITLTNLITEETTHVVMKTDAEFVCERTLKYFLGIAGGKWVVSYFWVTQSIKERKMLNEHDFEVRGDVVNGRNHQGPKRARESQDRKIFRGLEICCYGPFTNMPTDQLEWMVQLCGASVVKELSSFTLGTGVHPIVVVQPDAWTEDNGFHAIGQMCEAPVVTREWVLDSVALYQCQELDTYLIPQIPHSHY
Regarding B19, the “fold reduction in affinity” value in test [1] is about 1.4 fold.
